Entries after “also recorded” stand apart in the source; their conditions may differ.
Legend:
[1] = target: T1, human Axl (rhAxl-Fc chimera) (Homo sapiens, UniProt P30530); experiment: Biacore binding analysis on immobilized human Axl; conditions: 10 μg/mL, 25° C.
T1 construct: Soluble recombinant antigens corresponding to the extracellular domains of members of the human TAM receptor family; purchased R&D Systems 154-AL
Method: All binding experiments were performed using Biacore 3000 instrument (GE Healthcare) at 25° C. Soluble recombinant antigens corresponding to the extracellular domains of members of the human TAM receptor family, Axl (rhAxl-Fc chimera; R&D Systems, Cat. no. 154-AL), Mer (rhMer-Fc chimera; R&D Systems, Cat. no. 891-MR) and Tyro3 (rhTyro3/Dtk-Fc chimera; R&D Systems, Cat. no. 859-DK) were immobilized on the surface of CM5 sensor chip using amine coupling at the surface density of 393.0, 303.6 and 364.0 resonance units (RU), respectively. The Biacore run was performed in an automatic mode using Binding analysis wizard. Samples containing either MAb 10C9 or MAb 10G5 at concentration 10 μg/mL in HBS-EP buffer (GE Healthcare) were injected over the surfaces with immobilized antigens at flow rate of 30 μL/min for 3 min (association) followed by 5 min dissociation.
The binding experiments were performed using Biacore 3000 instrument (GE Healthcare) at 25° C. The soluble recombinant antigens corresponding to human Axl (rhAxl-Fc chimera; R&D Systems, Cat. no. 154-AL), mouse Axl (rmAxl-Fc chimera; R&D Systems, R&D Systems; Cat. no. 854-AX) and human Tyro3 (rhTyro3/Dtk-Fc chimera; R&D Systems, Cat. no. 859-DK) were immobilized on the surface of CM5 sensor chip using amine coupling at the surface density of 1,308.0, 2,115.9 and 1,429.0 RU, respectively. The Biacore runs were performed in an automatic mode using Binding analysis wizard.
The sample containing either MAb 10C9, MAb 10G5 or recombinant mouse (rm) Axl-ligand Gas6 (R&D Systems, Cat. no. 986-GS/CF) at concentration 10 μg/mL in HBS-EP buffer (GE Healthcare) was injected over the surfaces with immobilized antigens at flow rate of 30 μL/min for 3 min (association) followed by 5 min dissociation.
The sequence of Axl receptor from cynomolgus monkey (Macaca fascicularis; SEQ ID NO.43) was retrieved from WO2009062690A1. Based on the sequence, recombinant extracellular domain of cyno-Axl was generated by transient expression in CHO cells as a fusion protein with human Fc. The recombinant cyno-Axl-Fc was purified to homogeneity using Protein A-Sepharose (GE Healthcare). The binding experiments were performed using Biacore 3000 instrument (GE Healthcare) at 25° C. The soluble recombinant antigens corresponding to human Axl (rhAxl-Fc chimera; R&D Systems, Cat. no. 154-AL) and cyno-Axl were immobilized on the surface of CM5 sensor chip using amine coupling at the surface density of 775 and 880 RU, respectively. The Biacore runs were performed in an automatic mode using Binding analysis wizard.
The sample containing either MAb 10C9, MAb 10G5 or human Axl-specific MAb 5F11 (control) at concentration 10 μg/mL in HBS-EP buffer (GE Healthcare) was injected over the surfaces with immobilized antigens at flow rate of 30 μL/min for 3 min (association) followed by 5 min dissociation.
In addition, the Axl-binding properties of the chimeric antibodies c10C9 and c10G5 were tested using Biacore 3000 instrument (GE Healthcare) and a sensor chip CM5 coated with human Axl (rhAxl-Fc chimera; R&D Systems, Cat. no. 154-AL) at the surface density of 1,308.0 RU. The Biacore runs were performed in an automatic mode using Binding analysis wizard. The samples comprising either the chimeric antibodies c10C9 and c10G5 or their murine counterparts at concentration 10 μg/mL in HBS-EP buffer (GE Healthcare) were injected over the surfaces with immobilized antigens at flow rate of 30 μL/min for 3 min (association) followed by 5 min dissociation.

[2] = target: T2, rhAxl-Fc chimera (recombinant human Axl) (Homo sapiens, UniProt P30530); experiment: Biacore surface plasmon resonance kinetic affinity determination on immobilized rhAxl-Fc; format: binding; conditions: for association rate (kon): human Axl, Examples 5 and 13; for Off-rate (koff; s^−1) / On-rate (kon; M^−1s^−1): rhAxl immobilized on sensor chip, 25° C., 1:1 Langmuir binding model
T2 construct: Soluble recombinant antigens corresponding to the extracellular domains of members of the human TAM receptor family; purchased R&D Systems 154-AL
Method: (§1) Kinetic analysis of MAbs 10C9 and 10G5 interacting with rhAxl immobilized on the surface of the Biacore sensor chip. Overlay plots of sensograms for different antibody concentrations (1.3-666.7 nM for 10C9 and 0.3-166.7 nM for 10G5) are shown. The precise kinetic analysis was performed using BIA evaluation software and curve fitting according to 1:1 Langmuir binding model.
as §1, with “chimeric antibodies c10C9” for “MAbs 10C9”, “c10G5” for “10G5”, “c10C9” for “10C9”, “c10G5)” for “10G5)”
(§2) Affinity determination of anti-Axl antibodies 10C9 and 10G5 was performed at 25° C. by surface plasmon resonance measurements using Biacore 3000 instrument (GE Healthcare). As a solid antigen-coated surface, a sensor chip CM5 with immobilized rhAxl-Fc chimera (R&D Systems, Cat. no. 154-AL) at density 190 RU was used.
(§3) For the kinetics measurements, different concentrations of anti-Axl antibodies (from 0.3 to 666.7 nM) in HBS-EP buffer (Biacore, Cat. no. BR-1001-88) were injected at flow rate of 30 μL/min with 3 min injection time followed by 5 min dissociation (buffer alone). After each cycle, the surface was regenerated by 30 sec injection of a regeneration solution (10 mM HCl, 1 M NaCl) at flow rate 50 μL/min.
The kinetic association (on-rate, kon) and dissociation (off-rate, koff) rates were calculated using BIAevaluation software and 1:1 Langmuir binding model. The equilibrium dissociation constant (KD) was calculated as the koff/kon ratio. The half-life (t1/2) of the formed antibody-antigen complexes was calculated as the ln 2/koff ratio.
as §2, with “of the chimeric” for “of”, “c10C9” for “10C9”, “c10G5” for “10G5”
as §3, with “333.3” for “666.7”

B1: 10C9: mouse anti-Axl monoclonal antibody from hybridoma UT-10C9-B9, IgG2b; VH SEQ ID NO: 3, VL SEQ ID NO: 4 (antibody, listed as Mus musculus, V domains shown)
VH: QVQLQQPGPELVKPGASVKISCKTSDYNFTRYYIHWVKQRPGQGLEWIGWIYPGTGDSKYNEKFKGRATLTADTSSSTAYMQLSSQTSEDSAVYFCARNGNYWYFDVWGAGTAVTVSS
VL: DIVMTQAAPSGPVTPGESVSISCRSSKSLLHSNGNTYLYWFLQRPGQSPQLLIYRMSNLASGVPDRFSGSGSGTAFTLRISRVEAEDVGIYYCMQHREYPFTFGGGTKLEIK
binding to human Axl [1]: specific binding; also recorded: strong and specific interaction
binding to human Axl ([1]; listed as 1009): bind strongly
association rate (kon) [2]: 1.61e+06 M⁻¹ s⁻¹
Off-rate (koff; s^−1) ([2]; mouse MAbs): 0.000289 s⁻¹
On-rate (kon; M^−1s^−1) ([2]; mouse MAbs): 1.61e+06 M⁻¹ s⁻¹

B2: 10G5: mouse anti-Axl monoclonal antibody from hybridoma WR-10G5-E5, IgG1; VH SEQ ID NO: 21, VL SEQ ID NO: 22 (antibody, listed as Mus musculus, V domains shown)
VH: QVQLQQSGAELVRPGASVKLSCKASGYSFTDFYINWVRQRPGQGLEWIARIFPGGDNTYYNEKFKGKATLTAEESSSTAYIQLSSLTSEDSAVYFCARRGLYYAMDYWGQGISVTVSS
VL: DVLMTQTPLSLPVSLGDQASISCRSSQSLVHSNGIPYLHWYLQKPGQSPKLLIYRVSNRFSGVPDRFSGSGSGTDFTLKISRVEAEDLGVYFCSQGTHVPPTFGGGTKLEIK
binding to human Axl [1]: bind strongly; also recorded: specific binding; also recorded: strong and specific interaction
association rate (kon) [2]: 830000 M⁻¹ s⁻¹
Off-rate (koff; s^−1) ([2]; mouse MAbs): 0.000439 s⁻¹
On-rate (kon; M^−1s^−1) ([2]; mouse MAbs): 829000 M⁻¹ s⁻¹

B3: c10G5: chimeric (mouse variable/human constant) IgG1 variant of antibody 10G5 (antibody)
heavy: QVQLQQSGAELVRPGASVKLSCKASGYSFTDFYINWVRQRPGQGLEWIARIFPGGDNTYYNEKFKGKATLTAEESSSTAYIQLSSLTSEDSAVYFCARRGLYYAMDYWGQGISVTVSS
light: DVLMTQTPLSLPVSLGDQASISCRSSQSLVHSNGIPYLHWYLQKPGQSPKLLIYRVSNRFSGVPDRFSGSGSGTDFTLKISRVEAEDLGVYFCSQGTHVPPTFGGGTKLEIK
modifications: left off: a dimerising Fc or GST
notes: chimeric (mouse variable/human constant) IgG1 variant of antibody 10G5
binding to human Axl [1]: bind immobilized Axl with profiles very similar to the binding profiles of the corresponding mouse antibodies
Off-rate (koff; s^−1) ([2]; chimeric antibodies): 0.000169 s⁻¹
On-rate (kon; M^−1s^−1) ([2]; chimeric antibodies): 1.64e+06 M⁻¹ s⁻¹

From patent US10208121B2, “Anti-Axl antagonistic antibodies” (BERGEN TEKNOLOGIOVERFORING AS, priority 2014, dated 2019)
